Assay results published in the nanobody polyreactivity screen of Harvey et al. (2022).

Assay: yeast display, Sf9 membrane polyspecificity reagent, FACS + sequencing; frameworks hold sequencing errors
In short: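 Genes from sorted yeast were amplified by colony PCR, read by MiSeq 2 × 250 sequencing and filtered on CDR length. These cells carried a synthetic nanobody library in Saccharomyces cerevisiae BJ5465 and were sorted by FACS into low and high (top ~1%) gates on anti-HA and streptavidin fluorescence. Polyreactivity is labelled according to the gate of origin.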

| Sequence | polyreactivity (PSR sort gate) |
| --- | --- |
| QEQLVESGGGLVQAGGTLRLSCDASVSTQWYNAMGWYRQAPGKERELVATITAGGGSTYYADSVKGRFTISRDNAKNTVYLQMNSLKREDTAVYYCATRYTPAQLDYWGQGTQVTVSS | low polyreactivity |
| QVQLVESGGGLVQAGGSLRLSCAASGFIFGFYAMGWYRQAPGKERELVAAITSDGGTYYADSVKGRFTISRDNAKNTVYLQMNSLKPEDTAVYYCAARPPYTDSSPGERTYDYWGQGTQVTVSS | low polyreactivity |
| QVQLVESGGGLVQAGGSLRLSCAASGNTFRWYAMGWYRQAPGKEREFVADITVRGGSTYYADSVKGRFTISRDNAKNTVYLQMNSLKPEDTAVYYCASYHYYTYDYWGQGTQVTVSS | low polyreactivity |
| QVQLVESGGGLVQAGGSLRLSCAASGRIFQYYTMGWYRQAPGKERELVAAITWSSSRTYYADSVKGRVTISRDNAKNTVYLQMNSLKPEDTAVNYCAAEAQAAWNDYTYWGQGTQVTVSS | high polyreactivity |
| QVQLVESGGGLVQAGGSLRLSCAASGLIFRPYAMGWYRQAPGKERELFAGISFRGDSTYYADSVKGRFTISRDNAKNTVYLQMNCLKPEDTAVYYCDADVYIYWPPDKLLGYDYWGQGSQVTVSS | low polyreactivity |
| QVQLVESGGGLVQAGGSLRLSCAASGNTFANYAMGWYRQAPGKERELVAAITSNGGSTYYADSVKGRFTISRDNAKNTVYLQMNSLKPEDTAVYYCAAPGAISTRSRYGPGYTYDYWGQVTQVTVSS | low polyreactivity |
| QVHLVESGGGLVEAAVSLRLSYAASGITVKSYAMGSYRQAPGKERELVADISSSGGTTYYADYVKGRFTISRDNAKNTVYLKMKSLKAEHTAVYYCNAKWGRYFSGGYGDEYDYWGQGTQVTVSS | high polyreactivity |
| QVQLVESGGGLVQAGGSLRLSCAASGRTFRSYTMGWYRQAPGKERELVARISSSGGRTYYADSVKGRFTISRDNAKNTVYLQMNSLKPEDTAVYYCAAAIVSYGRNDYWGQGTQVTVSS | high polyreactivity |
| QVQLVESGGGLVQAGGSIRLSCAASGRIFYAYTMGWYRQAPVKERELVAAIRRRGTTYYADSVKGRFTISRDNAKNTVYLQMNSLKPDDTAVYYCAKDALGYRTSSALLGDYWGQGTQVTVSS | high polyreactivity |
| QVQLVESGGGLVQAGGSLRLSCAASGSIFKGNAMGWYRQAPRKERELVATITSSGDSTNYADSVKGRFTISRDNAKNTVYLQMNSLKPEDTAVYYCATEPFRYSLAGGYWGQGTQVTVSS | low polyreactivity |
| QVQLVESGGVLVQAGGSLRLSCAASGSTFPWYAMGWYRPAPGKERELVAAITARGTRTYYADSVKGRFTISRDNAKNTVYLQMNILKPEDTAVYYCNAGISSRYDYWGQGTQVTVSS | high polyreactivity |
| QVQLVESGGGLVQAGGSLRLSCAASGFTFSRYAMGWYRQAPGKERELVAAISYSGGRTYYADSVKGRFTISRDNAKNTVYLQMNSLKPEDTAVYYCNATWQSGHGWGQGTQVTVSS | high polyreactivity |
| QVQLVESGGGSVQAGGRLRLSCAASGLIFAGYARGWYRQSPGKERELVAASSTSGGRTYYADSVKGRFTISRDNAKNTVYLQINSLTPEDTAVYYCAAYPVHGKTQELAKEDYWGQGTQVTVSS | high polyreactivity |
| QVQLVESGGGLVQAGGSLRLSCAASGFTFEENAMGWYRPAPGKERELVAAINWSGGNTYYADSVKGRFTISRDNAKNPDSLQMNSLKPEDSAVYYCNAAGAGDDYDYWGQGTQVTVSS | high polyreactivity |
| QVQLVESGVGLVQAGGSLRLSCAASGFILTAYDMGWYRQAPGKERELVAAIDWIGGSTYYADSVKGRFTISRDNAKNTVYLQMNSLKPEDTAVYYCAARFYSYVYRLDYWGQGTQVTVSS | low polyreactivity |
| QVQLVESGGGLVQAGGSLRLSCAASGSTFEGNDMGWYRQAPGKERELVASITSDTSTYADSVKGRFTISRDNAKNTVYLQMNSLKPEDTAVYYCNTGSYAETYYWITDPYDYWGQGTQVNVSS | low polyreactivity |
| QVQLVESGGCLVQAGGSHRLSCAASGLTFPKYAMGWYRQAPGKERELVARISYSGASTYYADSVKGRFTISRDNAKNTVYLHMNSLKPEDTAVYYCYARIYRVFYVHFAPYYYWGQGTQVTVSS | high polyreactivity |
| QVQLVDSGGGLVQAGGSLRLSCAASGSTFDVYAMGWYRQAPGKERELVAVINTSGTRTYYADSVKGRFTISRDNAKNTVYLQMNSLKPEDTEVYYCNAGGHLEMNYWGQGTQVTVSS | low polyreactivity |
| QVQLVESGGGLVQAGGSLRLSCAASGRIFGYAMGWYRQAPGKERELVAAITSSGGRTYYADSVKGRFTISRDNAKNTVYLQMNSLKPEDTAVYYCAAEYLAVSGYWYDYWGQGTQVTVSS | high polyreactivity |
| QVHLVESGGGLVQAGGSLRLSFAASGYTLSDNAMGWYRQAPGKERELVATIDFGGGSTYYADSVKGRFTISRDNAKNTVYLQRNSLKPEDTAVYYCNTEWTSLSTSSLGGRYDHWGQGTQVTVSS | low polyreactivity |
| QVQLVESGAGLVQAGGSLRLSCAASGSIFLYNDMGWYRQAPGKERELVAAITSDGSTNYADSVKGRFTISRDNAMNTVYLQMNSLKPEDNAVYYCAADALWFYLNWYYGGTAYGYWGQCTQVTVSS | low polyreactivity |
| QVQLVESGGGLVQAGGSLRLSCAASGSIFQHYSLGRSRQAPGKERELVAAISYDTTSTYYADSVKGRFTISRDNAKNNVYLQMNSLKPEDTAVYYCNTYPEVYGPFQYDYWGQGTQVTVSS | low polyreactivity |

| Sequence | polyreactivity (PSR sort gate) |
| --- | --- |
| QVQLVESGGGLVQAGGSLRLSCAASGSTFIYNAMGWYRQAPGKERELVAGITGSGGSTYYADSVKGRFTISRDNAKNNVYLQMNSLKPEDTAVYYCAADRHIHYTDARMDYWGQGTQVTVSS | low polyreactivity |
| QDQLVESGGGLVQAGGSLRLSCAASGIIIWRYAMGRYRQAPRKERELVAGITSRGGSTYYADSVKGRFTISRDNAKNTVYLQMNSLKPEDTAVYYCNADWYGLLWWGVDYWGQGTQVTVSS | high polyreactivity |
| QVQLVESGGGLVQAGGSLRLSCAASGGILHGYAMGWYIQEPGKERELVSGITYSGDDTNYADSVKGRFTISRDNAKNTVYLQMNSLKPEDTAVYYCAAGPVWHIFTIDYVSFDDWGQGTQVTVSS | low polyreactivity |
| QVQLVESGGGLVQAGGSLRLSCAASGRTFSWYAMGWYRQAPGKERELVAAITSVGSTNYADSVKGRFTISRDNAKNTVYLQMNSLKPEDTAVYYCAATIFVYSYRYYYWGQGTQVTVSS | low polyreactivity |
| QVQLVDSGGGLVQAGGSLRLTCDASGFIILYYAMRWYRQEPGKERELVADISRGADTKYADSVKGRFTISRDNAKNTVYLQMNSLKPEDTAVYYCATDITTFCFPYPGVELGYWGQGTQVTVSS | low polyreactivity |
| QVQLVESGGGLVQAGGSLRLSCAASGRTFYTNAKGWYRQAPGKERELVAAISSDSSTNYADSVKGRLTISRDNAKNTVYLQMNSLKPEDTAVYYCNKVRQGWADYEYWGQGSQVTVSS | low polyreactivity |
| QVQLVESAGGLVQAAGSLRLSCDASGRIFWYNAMGWYRQEPGKERELVAAISSGGSTSYADSVKGRFTISRDNAKNTVYLQMNSLKPEDTAVYYCDKDDERKQGQYPPYDSWGQGTQVTVSS | low polyreactivity |
| QVKLVESGGGLVQAGGSLRLSCAASGRIFGRNTMGWYRQAPGKEREFVATITSGGSTYYADSVKGRFTISRDNAKNTVYLQMNSLKPEDTAVYYFNARGYSWRWYPLTSDYDSWGQGTQVTVSS | high polyreactivity |
| QVQLVESGGGLVQAGGSLRLSCAASGSTFVRNGMGWYRQAPGKERELVASISGRGGSTYYADSVKGRFTISRDNAKNTVYLQMNSLKPEDTAVYYCAVRYGFYSRYNYWGQGTQVTVSS | high polyreactivity |
| QVQLVESGGGLVQAGGSLRLSCAASGITFYVNAMGWYRQAPGKERELVAGIDSGGSTYYADSVKGRFTISRDNAKNTVYLQMNSLKPEDTAVYYCAARGSDYIRWYVGGRYGYWGQGTQVTVSS | low polyreactivity |
| QVQLVESGGGLVQAGGSLRLSCAASGSIFGYYAMGWYRQAPGKEREFVAAITWNGGSTYYADSVKGRFTISRDNAKNTVYLQMNSLKPEDTAVYYCARTSYARYRNGWTYDHWGQGTQVTVSS | low polyreactivity |
| QVQLVESGGGLVQAGGSLRLSCAASGSTFTNNGMGWYRQAPGKERELVATISWDGDSTYYADSVKGRFTISRDNAKNSVYLQMNSLKPEDTAVYDCAADYRLHYSYPYEVVQYEYWGQGTQVTVSS | low polyreactivity |
| QVQLVESGGGLVQAGGSLRLSCAASGFTFRYNAMGWYRQAPGKERELVAAISRSGGRTYYADSVKGRFTISRDNAKNTVYLQMNSLKPEDTAVYYCAAVAARITGYGYWGQGTQVTVSS | high polyreactivity |
| QVQLVESGGGLVQAGGSLRLTCAASGRTFSVNAMGWYRQAPGKERELVASINWSGGSTYYADSVKGRFTISRDNAKNTVYLQMNSLKPEDTAVYYCAADHSYWDWWSYYYWGQGTQVTVSS | low polyreactivity |
| QVQLVESGGGLVQAGGSLRFSCAASGSIYRNNAIGWYRQAPGKERELVAAITSTGTGTYYADSVKGRFTISRDNAKNTVYFQMNSLKPEDTAVYYCAVDDDFEFGYWGQGTQVTVSS | low polyreactivity |
| QVQLVESGGRLVQAGGSLLLSCAASGRIFRLYAMGWNTQAPGKERQLVASISSTGRTNYADSVKGRFTISRDNAKNTVYLQMNCLKPEDTAVYYCNAAVIYRYSQWDYGYWGLGTQVTVSS | high polyreactivity |
| QVQLVESGGGLVQAGGSLRLSCAASGRTFGGNGMGWYRQAPGKERELVASISFSGGAGTYYADSVKGRFTISRDIAKNTVYLQMNSLKPEDTAVYYCAKRYVTPTYRRYYWGQGTQVTVSS | high polyreactivity |
| QLQLVESGGGLFQAGGSLRLSCAPSGFIFTAYTMGWYRQAHGKESELVAAIDSGGGTYYADYVKGRFTISRYNAKNTVYLQIHSLKPDDTAVYYCAADPAKSRAGDFDYWGQGTQVTVSS | high polyreactivity |
| QVQLVESGGGLVQAGGSLRLSCAASGRIFRDYAMGWYRQAPGKERELVAAITGSGGRTYYADSVKGRFTISRDTAKNTVYLQMNSLKPEDTAVYYCAAYLGRRGQEMDYWGQGTQVTVSS | high polyreactivity |
| QVQLVESGGGLVQAGGSLRLSCAASGITFSRYAMGWYRQAPGKERELVAAISSGGSTYYADSVKGRFTISRDNAKNPVYLQMNSLKPEDTAVYYCAAVILSRWASYREYYYWGQGTQVTGSS | high polyreactivity |
| QVQLVESGGGLVQAGGSLRLSCAASGSTFYYYAMGWYRQAPGKERELVAAINSSGGNTYYADSVKGRFTISRDNAKNTVYLQMNSLKPEDTAVYYCATGQIAYSSYGPFDYWGQGTQVTVSS | low polyreactivity |
